From patent publication US20100216721A1

B1: HNG-156 (peptide)
peptide: RINNIPWSEAMM
modifications: not checked
B2: HNG-105 (peptide)
peptide: RINNIPWSEAMM
modifications: not checked

Tests used:
[1] = target: HIV-1 92UG037-08 gp120 (HIV-1 strain 92UG037-08); experiment: SPR (Biacore 3000); peptide over immobilized gp120
[2] = target: HIV-1 SF162 gp120 (HIV-1 strain SF162), P19550; experiment: SPR (Biacore 3000); peptide over immobilized gp120

Binder | Kd [1] | Kd [2]
B1 | 16.3 nM | 9 nM
B2 | 1840 nM | 70.5 nM
